Patent US20040175362A1

Biological target: coxsackie-adenovirus receptor (CAR) (human) (UniProt P78310)
Assay: cell-based or functional assay

Chain of UniProt P78310 (P78310 20-365): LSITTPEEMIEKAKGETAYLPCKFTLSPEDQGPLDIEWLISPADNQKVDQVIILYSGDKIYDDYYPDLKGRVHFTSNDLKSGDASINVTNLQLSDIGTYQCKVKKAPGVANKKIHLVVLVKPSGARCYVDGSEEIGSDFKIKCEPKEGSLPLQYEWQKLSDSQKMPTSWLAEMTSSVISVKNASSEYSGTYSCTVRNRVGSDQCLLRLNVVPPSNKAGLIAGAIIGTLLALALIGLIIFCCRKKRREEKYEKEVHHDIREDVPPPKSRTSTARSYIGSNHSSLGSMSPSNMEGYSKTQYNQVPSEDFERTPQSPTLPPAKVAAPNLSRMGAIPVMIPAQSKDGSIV

wild type Ad5 fiber as carried by the virions of AdCMVLuc (from UniProt P11818 1-581)
gene transfer blocked by purified fiber knob, AdCMVLuc on SKOV3.1p1 cells: > 90% | luciferase activity blocked by recombinant Ad5 fiber knob, AdCMVLuc on 293 cells: 85 to 93%

RGD-modified Ad5 fiber (… in the HI loop of the knob) as carried by the virions of Ad5lucRGD (from UniProt P11818 1-546; P11818 547-581)
gene expression blocked by recombinant Ad5 fiber knob, Ad5lucRGD on 293 cells: 40 to 60% | gene transfer blocked by knob protein, Ad5lucRGD on primary ovarian cancer cells, MOI 1 pfu/cell: 20% | luciferase activity blocked by purified fiber knob, Ad5lucRGD on SKOV3.1p1 cells: 20%
